Biological target: T1, 6xHis–Rab35^WT full-length (human, UniProt Q15286 1-201)
T1 construct: Rab35 GTPase, full-length, wild type; Exchanged with 1 mM GDP or 200 μM GTPγS before the pull-down; The species is not repeated for the His construct; also called 6xHis-tagged Rab35^WT; source: E. coli BL21 pLysS, purified (Ni-NTA Magnetic Agarose Beads)
Experiment: pull-down; GST–PODXL tail or GST on glutathione Sepharose 4B beads incubated with 6xHis-Rab proteins exchanged with 1 mM GDP or 200 μM GTPγS; 25 mM Tris pH 7.5, 50 mM NaCl, 10 mM MgCl2, 0.1% Triton X-100, 0.2% BSA; western blot with anti-6xHis
Conditions: both partners purified

T1 sequence (Q15286 whole entry): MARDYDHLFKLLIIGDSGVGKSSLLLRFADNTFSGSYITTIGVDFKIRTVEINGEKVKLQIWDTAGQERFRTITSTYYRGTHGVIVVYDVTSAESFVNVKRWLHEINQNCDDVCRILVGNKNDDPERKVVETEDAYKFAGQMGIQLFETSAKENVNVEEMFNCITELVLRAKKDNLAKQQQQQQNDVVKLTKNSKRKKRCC

- binding result: binds
B1: GST–PODXL WT (aa 476–551) (domain or fragment, rabbit, UniProt Q28645 476-551, looked up)
chain: CHQRLSHRKDQQRLTEELQTVENGYHDNPTLEVMETSAEMQEKKVVNLNGELGDSWIVPLDNLTKDDLDEEEDTHL
notes: The species is not repeated for the GST construct; source: E. coli BL21 pLysS, purified (glutathione Sepharose 4B)

Reference: paper PMC4822036, “Rab35 GTPase couples cell division with initiation of epithelial apico-basal polarity and lumen opening” (Nature Communications, 2016)
